Measured values reported in patent US20230201308A1, “TREATMENT OF CORONAVIRUS INFECTION WITH […]” (Eiger Biopharmaceuticals, Inc., priority 2020, published 2023).
Where two headings read alike, the source gives them in different places.

Test system: SARS-CoV-2
[1] = Treated within 5 days of symptom onset, n=800 vs placebo 879
[2] = Unvaccinated population, n=143 vs placebo 176
[3] = final, treatment ≤3 days of symptom onset
[4] = high-risk patients, pooled Brazil+Toronto
[5] = intention-to-treat, N = 931 vs placebo N = 1018
[6] = treatment within 3 days of symptom onset
[7] = unvaccinated patients, treatment within 3 days of symptoms
[8] = ≤3 days of symptoms before treatment, preliminary

B1: pegylated interferon lambda-1a (protein)
chain: MKPTTTGKGCHIGRFKSLSPQELASFKKARDALEESLKLKNWSCSSPVFPGNWDLRLLQVRERPVALEAELALTLKVLEAAAGPALEDVLDQPLHTLHHILSQLQACIQPQPTAGPRPRGRLHHWLHRLQEAPKKESAGCLEASVTFNLFRLLTRDLKYVADGNLSLRTSTHPEST
modifications: PEG
notes: 180 mcg subcutaneous injection
[1]
  Hospitalization or ER (any duration) for COVID-19, RR (95% CrI) vs placebo: 0.73 (0.56, 0.94)
  Hospitalization or ER ≥6 h for COVID-19, % of patients: (2.5%)
  Hospitalization or ER ≥6 h for COVID-19, Pr (Superiority): 1.000
  Hospitalization or ER ≥6 h for COVID-19, RR (95% CrI) vs placebo: 0.45 (0.26, 0.72)
[2]
  Death due to COVID-19, % of patients: 0 (0%)
  Death due to COVID-19, RR (95% CrI) vs placebo: 0.51 (0.02, 6.47)
  Death or hospitalization due to COVID-19, % of patients: 4.2%
  Death or hospitalization due to COVID-19, RR (95% CrI) vs placebo: 0.49 (0.19, 1.12)
  Hospitalization for COVID-19, % of patients: 4.2%
  Hospitalization for COVID-19, RR (95% CrI) vs placebo: 0.49 (0.19, 1.12)
  Hospitalization or ER (any duration) for COVID-19, % of patients: 16.1%
  Hospitalization or ER (any duration) for COVID-19, Pr (Superiority): 0.806
  Hospitalization or ER (any duration) for COVID-19, RR (95% CrI) vs placebo: 0.82 (0.50, 1.29)
  Hospitalization or ER ≥6 h for COVID-19, % of patients: 4.2%
  Hospitalization or ER ≥6 h for COVID-19, Pr (Superiority): 0.967
  Hospitalization or ER ≥6 h for COVID-19, RR (95% CrI) vs placebo: 0.46 (0.18, 1.05)
Early treated patients
  deaths in the arm: no deaths
Final ITT
  COVID-19 deaths in the treatment arm: one
  Hazard ratio, COVID-19-related hospitalization or death (all-cause death): 0.59
  hazard ratio, COVID-19 death: 0.22
  hazard ratio, risk of hospitalization: 0.57
  relative risk, COVID-19-related hospitalization alone: 0.57
  risk reduction, COVID-19-related hospitalization or all-cause death: 41%
Final ITT, 931 vs placebo 1018
  relative risk, primary outcome: 0.49
Final ITT, n=931
  participants experiencing a primary outcome event, %: 2.7%
  participants experiencing a primary outcome event, count: 25 of 931
Final ITT, patients receiving peginterferon lambda
  absolute risk reduction (with 95% Bayesian credible intervals) plotted, FIG. 14: 0.028 (0.018, 0.039)
final, treatment within 3 days of symptom onset
  relative risk, primary outcome: 0.42
[3]
  Hazard ratio, COVID-19-related hospitalization or death: 0.35
  risk reduction, COVID-19-related hospitalization or death: 65%
high-risk patients, Brazil
  RR, All-cause mortality or Hospitalization: 0.69
  RR, Death or Hospitalization due to COVID-19: 0.63
  RR, Hospitalization or ER visit>6 hours: 0.49
  probability of superiority (Pr), Hospitalization or ER visit>6 hours: 0.990
[4]
  Pr, Hospitalization or ER visit>6 hours: 0.990
  RR, All-cause mortality or Hospitalization: 0.69
  RR, Death or Hospitalization due to COVID-19: 0.63
  RR, Hospitalization or ER visit>6 hours: 0.49
human, in vivo
  participants with primary outcome event, count: 23/929
  relative risk, primary outcome: 0.47
intention-to-treat, N = 931
  Days on mechanical ventilation: mean: 10.2 days
  Death due to COVID-19: percentage of patients: (0.1%)
  Death due to COVID-19: total (no. of patients): 1
  Death or hospitalization due to COVID-19: percentage of patients: (2.4%)
  Death or hospitalization due to COVID-19: total (no. of patients): 22
  Hospitalization for COVID-19: percentage of patients: (2.3%)
  Hospitalization for COVID-19: total (no. of patients): 21
  Hospitalization or ER (any duration) for COVID-19: percentage of patients: (10.6%)
  Hospitalization or ER (any duration) for COVID-19: total (no. of patients): 99
  Hospitalization or ER visit >6 h for COVID-19: percentage of patients: (2.7%)
  Hospitalization or ER visit >6 h for COVID-19: total (no. of patients): 25
[5]
  Days on mechanical ventilation: MD (95% CrI), estimated treatment effect: −4.47 (−6.89, 3.09)
  Days on mechanical ventilation: Probability of Superiority (MD): 90.5
  Days to death for COVID-19: HR (95% CI), estimated treatment effect: 0.22 (0.01, 1.64)
  Days to death for COVID-19: Probability of Superiority (HR): 90.7
  Days to death or hospitalization due to COVID-19: HR (95% CrI), estimated treatment effect: 0.59 (0.35, 0.97)
  Days to death or hospitalization due to COVID-19: Probability of Superiority (HR): 98.1
  Days to hospitalization for COVID-19: HR (95% CrI), estimated treatment effect: 0.57 (0.33, 0.95)
  Days to hospitalization for COVID-19: Probability of Superiority (HR): 98.5
  Days to hospitalization or ER visit >6 h for COVID-19: HR (95% CrI), estimated treatment effect: 0.47 (0.29, 0.73)
  Days to hospitalization or ER visit >6 h for COVID-19: Probability of Superiority (HR): >99.9
  Death due to COVID-19: Probability of Superiority (RR): 86.9
  Death due to COVID-19: RR (95% CrI), estimated treatment effect: 0.39 (0.05, 1.95)
  Death or hospitalization due to COVID-19: Probability of Superiority (RR): 97.7
  Death or hospitalization due to COVID-19: RR (95% CrI), estimated treatment effect: 0.61 (0.36, 0.99)
  Hospitalization for COVID-19: Probability of Superiority (RR): 98.3
  Hospitalization for COVID-19: RR (95% CrI), estimated treatment effect: 0.58 (0.34, 0.96)
  Hospitalization or ER (any duration) for COVID-19: Probability of Superiority (RR): 98.1
  Hospitalization or ER (any duration) for COVID-19: RR (95% CrI), estimated treatment effect: 0.78 (0.61, 0.99)
  Hospitalization or ER visit >6 h for COVID-19: Probability of Superiority (RR): >99.9
  Hospitalization or ER visit >6 h for COVID-19: RR (95% CrI), estimated treatment effect: 0.49 (0.30, 0.76)
Per protocol analysis (25/931 vs 43/825)
  relative risk, primary outcome: 0.52
Preliminary ITT
  fewer COVID-19-related deaths than placebo: 75%
[6]
  hazard ratio, COVID-19-related hospitalization: 0.35
  relative risk, all-cause death: 0.19
  risk reduction in all-cause death: 81%
  risk reduction of COVID-19-related hospitalization: 65%
[7]
  Hazard ratio vs. placebo: 0.11
  risk (hazard) reduction, COVID-19-related hospitalization or death: 89%
[8]
  Risk Reduction (95% BCI), Hospitalizations or Deaths: 60% (17-82%)
  Risk Reduction (95% BCI), Hospitalizations or ER visits: 67% (19-79%)
≤7 days of symptoms before treatment, preliminary
  Risk Reduction (95% BCI), Hospitalizations or Deaths: 39% (1-64%)
